Laboratory results from the supplement of paper PMC7125110.
± gives the standard error. For some assays here: Variants at the floor of the assay were thinned out.

B1: glmS ribozyme (parent)
chain: AUAAAAGCGCCAGAACUACAGAAAUGUAGUUGACGAGGAGGAGGUUUAUCGAAUUUUCGGCGGAUGCCUCCAAA

Assays:
Details in all cases: with glucosamine-6-phosphate
glucosamine-6-phosphate [1] = variants of: B1; experiment: kcat; higher = faster cleavage; RNA array
In short: (§1)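 Ribozyme variants carrying barcodes were transcribed in situ on sequenced MiSeq chips by E. coli RNA polymerase and tracked at 37 °C with a hybridised Cy3 probe. They were exposed to 40 μM to 10 mM glucosamine-6-phosphate in HEPES/KCl/Mg(OAc)2 buffer. kobs came from exponential decay fits of normalised per-tile medians, and kcat and KM from weighted Michaelis–Menten fits.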

glucosamine-6-phosphate [2] = variants of: B1; experiment: KM; higher = weaker cofactor use; RNA array
In short: as §1

glucosamine-6-phosphate [3] = variants of: B1; experiment: self-cleavage kobs at 160 uM GlcN6P; higher = faster cleavage; RNA array
In short: as §1

glucosamine-6-phosphate [4] = variants of: B1; experiment: self-cleavage kobs at 640 uM GlcN6P; higher = faster cleavage; RNA array
In short: as §1

glucosamine-6-phosphate [5] = variants of: B1; experiment: self-cleavage kobs at 2500 uM GlcN6P; higher = faster cleavage; RNA array
In short: as §1

glucosamine-6-phosphate [6] = variants of: B1; experiment: self-cleavage kobs at 10000 uM GlcN6P; higher = faster cleavage; RNA array
In short: as §1

glucosamine-6-phosphate [7] = variants of: B1; experiment: self-cleavage kobs at 40 uM GlcN6P; higher = faster cleavage; RNA array
In short: as §1

| Variant | kcat (glucosamine-6-phosphate [1]) [s⁻¹] | KM (glucosamine-6-phosphate [2]) [µM] | self-cleavage kobs at 160 uM GlcN6P (glucosamine-6-phosphate [3]) [s⁻¹] | self-cleavage kobs at 640 uM GlcN6P (glucosamine-6-phosphate [4]) [s⁻¹] | self-cleavage kobs at 2500 uM GlcN6P (glucosamine-6-phosphate [5]) [s⁻¹] | self-cleavage kobs at 10000 uM GlcN6P (glucosamine-6-phosphate [6]) [s⁻¹] | self-cleavage kobs at 40 uM GlcN6P (glucosamine-6-phosphate [7]) [s⁻¹] |
| --- | --- | --- | --- | --- | --- | --- | --- |
| AUAAAAGCGCCAGAACUACAGAAAUGUAGUUGACGAGGAGAAGGUGUAUCGAAUUUUCGGCGGAUGCCUCCAAA [G41A U46G] | 0.00092 ± 0.00015 | 2030 ± 530 | 6.59e-05 ± 1.8e-05 | 0.000206 ± 4.4e-05 | 0.000537 ± 0.00011 | 0.000747 ± 0.00018 |  |
| AUAAAAGCGCCAGGACUACAGAAAUGUAGUUGACGAGGAGGAGGUUUAUCGAAUUUUUGGCGGAUGCCUCCAAA [A14G C58U] | 0.000263 ± 4.8e-05 |  |  |  | 5.32e-05 ± 1.9e-05 | 0.000129 ± 2.9e-05 | < 1e-05 |
| AUAAAAGCGCCAGAACUACAGAAAUGUAGUUGACGAGGAGGAGGUUUAUCGAAUUUUCGGGGCAUGCCUCCAAA [C61G G63C] | < 1e-05 | 181 ± 67 | < 1e-05 |  | < 1e-05 |  | < 1e-05 |
| AUAAAAGCGCCAGAGCUACAGAAAUGUAGUUGACGAGGAGGAGGGUUAUCGAAUUUUCGGCGGAUGCCUCCAAA [A15G U45G] | 0.00832 ± 0.00089 | 1730 ± 260 | 0.000643 ± 9.8e-05 | 0.0024 ± 0.00037 | 0.0044 ± 0.00084 | 0.00741 ± 0.001 | 0.000211 ± 3.4e-05 |
| AUAAAAGCGCCAGAACUACAGAAAUGUAGUUGACGAGGAGGAGGUUAAUCGAAUUUUCGGCGGCUGCCUCCAAA [U47A A64C] | 0.000113 ± 8.6e-06 | 720 ± 280 |  | 6.51e-05 ± 1.8e-05 | 7.85e-05 ± 1.3e-05 | 0.000109 ± 1.1e-05 |  |
| AUAAAAGCGCCAGAACUACAGAAAUGUAGUUGUCGAGGAGGAGGUUUAUCGAAUAUUCGGCGGAUGCCUCCAAA [A33U U55A] | 0.000138 ± 2.3e-05 | 2730 ± 1200 |  |  | 7.49e-05 ± 6.9e-06 | 0.000105 ± 7.9e-06 |  |
| AUAAAAGCGCCAGAACUACAGAAAUGUAGUUAACGAGGAGGAGGUUUAUCGAAUUUUCGGCGGAAGCCUCCAAA [G32A U65A] | 0.000307 ± 0.0001 |  |  | 5.66e-05 ± 1.2e-05 | 0.000104 ± 1.4e-05 | 0.000243 ± 4.4e-05 |  |
| AUAAAAGCGCCAGAACUACAGAAAUGUAGUUGACGAGGGGGAGGUUUAUCGAAUUCUCGGCGGAUGCCUCCAAA [A39G U56C] | 0.00799 ± 0.002 | 3240 ± 1100 | 0.000656 ± 0.00018 | 0.00106 ± 0.00014 | 0.0039 ± 0.00058 | 0.00611 ± 0.00076 | 0.000109 ± 1.2e-05 |
| GUAAAAGCGCCAGAACUACAGAAAUGUAGUUGACGAUGAGGAGGUUUAUCGAAUUUUCGGCGGAUGCCUCCAAA [A1G G37U] | 1.48e-05 ± 2.9e-06 |  |  | < 1e-05 |  |  |  |
| AUAAAAGCGCCAGAACUACAGAAAUGUAGUUGACGAGGAGGAGGUUUAUCGAAGUUUCGGCGGAUGCCUCCAAA [U54G] | 0.0504 ± 0.0099 | 1870 ± 470 | 0.00365 ± 0.00023 | 0.0116 ± 0.00052 | 0.0251 ± 0.0014 | 0.0511 ± 0.0026 | 0.00117 ± 3.8e-05 |
| AUAAAAGCGCCAGAGCUACAGAAAUGUAGUUGACGAGGAGGAGGUUUAUCGAAUUUUCGGCGGAUGCCUGCAAA [A15G C70G] | 0.000355 ± 6.5e-05 | 180 ± 79 | 0.000137 ± 1.9e-05 | 0.000303 ± 2.7e-05 |  | 0.00033 ± 5.4e-05 | 8.28e-05 ± 1.3e-05 |
| AUAAAAGCGCCAGAACUACAGAAAUGUAGUUGACAAGUAGGAGGUUUAUCGAAUUUUCGGCGGAUGCCUCCAAA [G35A G38U] | < 1e-05 |  | < 1e-05 |  |  |  |  |
| AUAAAAGCGCGAGAACUACAGAAAUGUAGUUGACGAGGAGGAGGUUUAUCGAAUUUUCGGCGGAUGGCUGCAAA [C11G C67G C70G] | 5.32e-05 ± 2.1e-05 |  |  | 8.18e-05 ± 2.2e-05 |  |  |  |
| AUAAAAGCGCCAGAACUACAGAAAUGUAGUGGACGAGGAGGAGGUUUACCGAAAUUUCGGCGCAUGCGGCCAAA [U31G U49C U54A G63C C68G U69G] | 2.53e-05 ± 5.9e-06 |  |  |  |  |  | < 1e-05 |
| AUAAAAGCGCCAGAACUACAGAAAUGUACUUGACGAGGAGGAGGUUGAUCGAAUUUUCGGCGGAUGCCUCCAAA [G29C U47G] | 0.000341 ± 9.9e-05 |  |  | 7.76e-05 ± 1.8e-05 | 0.000393 ± 8.4e-05 | 0.000269 ± 4.6e-05 |  |
| AUAAAAGCGCCAGAACUACAGAAAUGUAGUGGACGAGGAGGAGGUUUAUCGAAUUAUCGGCGGAUGCCUCCAAA [U31G U56A] | 0.00739 ± 0.00043 | 4370 ± 320 | 0.000307 ± 0.00014 | 0.000903 ± 0.00017 | 0.00263 ± 0.0008 | 0.00519 ± 0.00083 | 6.8e-05 ± 9.6e-06 |
